This is an account of results in the nanobody polyreactivity screen of Harvey et al. (2022).

This data set can be described thus: yeast display, Sf9 membrane polyspecificity reagent, FACS + sequencing; frameworks hold sequencing errors. A digest of the protocol: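 Sorting gates, low and high (top ~1%), were placed on anti-HA fluorescence to track expression and on streptavidin fluorescence to track reagent binding. A clone's polyreactivity label is taken from the gate it came out of. The reagent was 10% biotinylated, detergent-solubilized Sf9 membrane, applied for 1 hour at 4 °C to galactose-induced yeast display cells.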
With “QVQLVESGGGLVQAGGSLRLRCAASGLTFVRYTMGWYRPAPGKERELVAAITYSDASTYYADSVKGRFTISRDNAKNTVYLQKNSLKPEDTAVYYCAAVYFGGPRSNSPYSRYGYWGQGTQVTVSS”, the “polyreactivity (PSR sort gate)” value was “low polyreactivity”.
The entry for “QVQLVESGGGLVQAGGSLRLRCAASGLTFWGYPMGWYRQAPGKEREFVASITSGGGSTYYADSVKGRFTISRDNAKNTVYLQMNILNPEDTAVYYCNVDVHLYLYKSYTYRYYYWGQGTQVTVSS” is “low polyreactivity”; for “QVQLVESGGGLVQAGGSLRLRCAASGRIFDYYAMGWYRPAPGNERELVAALSSSVGNTYYADSVKGRFTISRDNAKNTVYLQMNSLKPEDTAVYYCADNYYVRSSYEVEYDYWGQGTQVTVSS” it is “low polyreactivity”.
For the sequence “QVQLVESGGGLVQAGGSLRLRCAASGRIFPDNAMGGYRQAPGKERELVAAITYSGGSTSYADSVKGRFTISRDNAKNTVYLQMNRLKPEDTAVYYCIKAGGTSYDYVRVDKFPGVYWGQGTQVTVSS”, the “polyreactivity (PSR sort gate)” value is “low polyreactivity”.
The entry for “QVQLVESGGGLVQAGGSLRLRCAASGRIFRLYDMGWYRHAPGKEREFVAAISSSGDSTYYADSVKGRFTISRDNAKNTVYLQMNSLKPEDTAVYYCAAVTRRYVLSTFYYWGQGTQVTVSS” is “high polyreactivity”.
The value for “QVQLVESGGGLVQAGGSLRLRCAASGRIFRSYAMGWYRQAPGKEWEMVAAITSGTRTNYADSVKGRCTISRDNAKNTVYLQMNSLKPEDTAVSYCAARGSGFPPYRTRNYWGQGTQVTVSS” was “high polyreactivity”; that for “QVQLVESGGGLVQAGGSLRLRCAASGRIFTYYTMGWYIQAAGKEMELDANITTGGSTNYADSVKGRFTISRDNAENTVYLQMNSLKPEDSAVYYCNKDGVVEVRFTGRHEYDYWGQGTQVTVSS” was “low polyreactivity”.
The entry for “QVQLVESGGGLVQAGGSLRLRCAASGRIFVHYVMVWSRQAPGKEREFVAAITIGSTYADSVKGRFTISRDNAKNTVYLQMNSLKPEDTAVYYCNARWVVNVRTQGSPPYKYDYWGQGSQVTVSS” is “low polyreactivity”.
On to “QVQLVESGGGLVQAGGSLRLRCAASGRIFYSNTMGWYRQAPGKERELVADITSGGSTKYADSVKGRFTISRDNAKNTVYLQMISLKPEDTAVYYCAAGERYDWWYGGFQGYDYWGQGTQVTVSS”, for which the “polyreactivity (PSR sort gate)” value is listed as “high polyreactivity”.
The value for “QVQLVESGGGLVQAGGSLRLRCAASGRTFAVYAMGWYRQAPGKERELVAAITLGASRTYYADSVKGRFTISRDNAKNTVYLQMNSLKPEDTAVYYCAVTWGARTDQWSLRVFVGYDYWGQGTQVTVSS” was “low polyreactivity”.
The value for “QVQLVESGGGLVQAGGSLRLRCAASGRTFDGYAMGWYRQAHGKERELVAAISKRGGSTYYADSVKGRCTISRDNAKNSVYFQMNSLKPEDTAVYYCNKRYFGDQTWVGGDSWGQGTQVTVSS” was “high polyreactivity”.
The entry for “QVQLVESGGGLVQAGGSLRLRCAASGRTFGEYTMGWYRQAPGKERELVAAISSAGRTNYADSVKGRFTISRDNAKNTVYLQMNSLKPEDSGVYYCAADWTDDVRGYDYWGQGTQVTVSS” is “low polyreactivity”; for “QVQLVESGGGLVQAGGSLRLRCAASGRTFRTYTMGWYRKAPGKERELVAAISYSGGSTYYADSVKGRFTISRDNAKNTVYLQMNSLKPEDTAVYYCAIRPYPYKYDYWGQGTQVTVSS” it is “high polyreactivity”; for “QVQLVESGGGLVQAGGSLRLRCAASGRTFWVNAMGCDRQAPGTERELVAGITFRGGSTDYADSVKGRFTISRDNAQNTVYLQMNRLKPEDTAVDDCAARVYRYGAMDYWGQGTQVTVSS” it is “high polyreactivity”.
Regarding “QVQLVESGGGLVQAGGSLRLRCAASGRTFYGYAMGWYRQAPGKEREFVAAITYTGGRTYYADSVKGRFTISRDNAKNTVYLQMNSLKPEDTAVYYCNAYYYYVNQGRFEYGYWGQGTQVTVSS”, the “polyreactivity (PSR sort gate)” value is reported as “high polyreactivity”.
The value for “QVQLVESGGGLVQAGGSLRLRCAASGRTFYYAMGWYRQAPGKERYADSVKGRFTISRDNAKNTVYLQMNSLKPEDTAVYYCAAKVPDPPSLDESDYWGQVTQVTVSS” was “low polyreactivity”; that for “QVQLVESGGGLVQAGGSLRLRCAASGRTLVAYAMGWYRQAPGKERELVAAIDTDTGITYYADSVKGRFTISRDNAKNTVYLQMNSLKPEDTAVYYCAAETYYAVSTGYDFDYWGQGTQVTVSS” was “high polyreactivity”; that for “QVQLVESGGGLVQAGGSLRLRCAASGSIFFRYAMGWYRQAPGKERELVANISSGGGNTYYADSVKGRFTISRDNAKNTVYLQMNSLKPEDTAVYYCARRLATRGHTYDYWGQGTQVTVSS” was “low polyreactivity”.
The entry for “QVQLVESGGGLVQAGGSLRLRCAASGSIFVYYAMGWYRQAPGKERELVAAITWRGDNTYYADSVKGRFTISRDNAKNSVYLQMNSLKPEDTAVYYCAADSYTSIFDYWGQGTQVTVSS” is “low polyreactivity”.
The value for “QVQLVESGGGLVQAGGSLRLRCAASGSIFYRNAMGWNRQAPGKERELVSANTRTGGSTYYADSVQARFTISRDNAKNTVYLQMNSLKPEDTAVYYCPAETWYRWPRSAWRFDYWGQGTQVNVSS” was “high polyreactivity”; that for “QVQLVESGGGLVQAGGSLRLRCAASGSTFAYYAMGWYRQAPGKEREFVATITWTGGSTNYADSVKARFTISRDNAKNTVYLQMNSLKPEDTAVYYCAAAFVISYDYWGQGTQVTVSS” was “high polyreactivity”; that for “QVQLVESGGGLVQAGGSLRLRCAASGSTFDVYAMGWYRQAPGKERELVASISITDGSTYYADSVKGRFTISRDNAKNTVYLQMNSLIPEVTAVYYCAAEYHTLSKYSGYATHVYWGQGTQVTVSS” was “low polyreactivity”.
With “QVQLVESGGGLVQAGGSLRLRCAASGSTFKFYAMGWYRQAPGKEREFVAAITGSGGSTYYADSVKGRFTISRDNAKNTVYLQMNSLKPEDTAVYYCNTTPVLQLYYWGQGTQVTVSS”, the “polyreactivity (PSR sort gate)” value is “low polyreactivity”.
The entry for “QVQLVESGGGLVQAGGSLRLRCAASGSTFQRYAMGWYRQAPGKERELVAAITWSGGSTKYADSVKGRFTISRDNAKTTVYLQMNCLKPEDTAVYYCARTYLSSRWGQGTQVTVSS” is “low polyreactivity”.
The entry for “QVQLVESGGGLVQAGGSLRLRCAASGSTFRANAMGWYRQAPGKERELVAAISWSGGRTYYADSVKGRFTISRDNAKNTVYLQMNSLKPEDTAVYYCAAPKLTSYDSWGQGTQVTVSS” is “high polyreactivity”.
For “QVQLVESGGGLVQAGGSLRLRCAASGSTFSGYAMGWYRKGPGKERELVAAISSGGGSTYYADSVKGRFTISRYNAKNTVYLQMNSLKPEDTDVYYCATGYPWYCGQGTQVTVSS”, the “polyreactivity (PSR sort gate)” value is “high polyreactivity”.
The entry for “QVQLVESGGGLVQAGGSLRLRCAASGSTFTGNTMGWYRQAPGKERELVAAITYRGGSTYYADSVKGRLTISRDNAKNTVYLQMNSLKPEDTAVYYCAAAGYYYSVEGAGPRYDYWGQGTQVTVSS” is “low polyreactivity”; for “QVQLVESGGGLVQAGGSLRLRCAASGSTSPFNAMGWYRQAPGKERELVASITSSGSTNYADSVKGRFTISRDNAKNTVYLQINSLKPEDTAVYYCASEGVVSETFYAYWGQGTQVTVSS” it is “low polyreactivity”.
Turning to “QVQLVESGGGLVQAGGSLRLRCAATGFISVTYAMGWYRQAPGKERELVAAITYSGGSTYYADSVKGRFTISRDNAKNTVYLQMNSLKPEDTAVYYCATEPQSDYSYDYWGQGTQVTVSS”, the “polyreactivity (PSR sort gate)” value is reported as “low polyreactivity”.
The entry for “QVQLVESGGGLVQAGGSLRLRCAATGHIFYYYTMGWSRQAPGKERELVAGITIGGSTNYADSVKGRFTISRDNAKNTVYLQMKSLKPEDTAVYYCNVVKYVYIYSYWEYYYWGQGTQVTVSS” is “low polyreactivity”.
The entry for “QVQLVESGGGLVQAGGSLRLRCADSGRTFRYNAMGWYRQAPGKERELVAGIRWSGDRTYYADSVKGRFTISHDNAKNTVYLQMNSLKPEDTAVYSCNKVYHPGYGVRATYDYWGQGTQVTVSS” is “high polyreactivity”; for “QVQLVESGGGLVQAGGSLRLRGAASGFTYLYYAMGWYRQAPGKERELVAAITWSGDSTYYADSVKGRFTISRDNAKNTVYLQMNSLKPEDTAVYYCANGGVTFGTVVRGVDGDYWGQGTQVTVSS” it is “low polyreactivity”.
The value for “QVQLVESGGGLVQAGGSLRLRGAASGGIISSYVLGWYRQAPGKERELVAAISRSGGSTYYADSVKGRFTISRDNAKNTVNLQMNSLKPEDTAVYYCAAVLQTRYNYWGQGTQVTVSS” was “high polyreactivity”; that for “QVQLVESGGGLVQAGGSLRLRWAASGRIFHHYAMGWYRPAPGKERELVAAISSGGSTYYADSVKGRFTISRDNAKNTVYLQMNSLKPEVTAVYYCAAYWYSPEYDYWGQGTQVTLSS” was “high polyreactivity”.
In the case of “QVQLVESGGGLVQAGGSLRLRWAASGRIFLNYAMGLYRQEPGKEREVVAAISRTGGRKYYADSVKGRFTISRDTEKNTVYLQMYSLKPEDTAVYYCDAYYSGFLTYGLDYWGQGTQVTLSS”, the “polyreactivity (PSR sort gate)” value is reported as “high polyreactivity”.
The value for “QVQLVESGGGLVQAGGSLRLSAASGSTLAGNTMGWYRQAPGKERELVAAINDSGGSTYYADSVKGRFTISRDNAKNTVYLQMNSLKPEETAVYYCNADGSAYIEDGYDYWGQGTQVTVSS” was “low polyreactivity”; that for “QVQLVESGGGLVQAGGSLRLSCAAAARTFPYNAMGWYRQAPGQERELVATISRRTGTTYYADSVKGRFTISRDNAKNTVYLQMNSLKPEDTAVYFCAATGFGLRRLFRGDYWGQGTQVTVSS” was “high polyreactivity”.
The value for “QVQLVESGGGLVQAGGSLRLSCAAAGFTFSVNAMGWYRQAPGKERELVAAISSRGSITYYADSVKGRFTISRDNAKNTVYLQMNSLKPEDTAVYYCNAYKYKSPGDYWGQGTQVTVSS” was “high polyreactivity”; that for “QVQLVESGGGLVQAGGSLRLSCAACGFTFWKYAMGWYRQAPGKERELVAAITSGGNTYYADSVKGRFTISRDNAKNTVYLQMNSLKPEDTAVYYCATSGPRGWSLHDYWGQGTQVTVSS” was “high polyreactivity”.
The entry for “QVQLVESGGGLVQAGGSLRLSCAACGRIFGYYAMGWYRQAPGKERELVAAITGVGRTNYADSVKGRFTISRDNAKNTVYLQMNSLKPEDTAVYYCNVVRVYRYDYWGQGTQVTVSS” is “high polyreactivity”; for “QVQLVESGGGLVQAGGSLRLSCAACGRTFGWYAMGWYRQAPGTERELVATISSRGGATYYADSVKGRFTISRDNAKNTVYFQMNSLKPEDTAVYYCAAYSRTFEGHRGGYWGQGTQVTVSS” it is “high polyreactivity”.
